The text below walks through data of paper PMC10708888, “Evolution towards simplicity in bacterial small heat shock protein system” (eLife, 2023).

Data set [1] concerns the target heat-aggregated E. coli proteins. Description: biolayer interferometry (BLI). The note with it: value read at the end of the association phase (~60 min), read off a plot. On the technique in general: In BLI a coated tip is dipped into the sample, and binding shifts an interference pattern.
The target of data set [2] is T1, His-tagged luciferase, heat-aggregated on the BLI sensor (firefly, UniProt P08659 1-550 = luciferase).
T1 construct: firefly luciferase, His-tagged construct of Obuchowski et al., 2019; anchoring layer attached to NTA sensors in 4.5 M urea, then aggregate formed at 44 °C; also called aggregated luciferase; luciferase aggregates; source: purified as described previously (Obuchowski et al., 2019)
T1 sequence (P08659 whole entry): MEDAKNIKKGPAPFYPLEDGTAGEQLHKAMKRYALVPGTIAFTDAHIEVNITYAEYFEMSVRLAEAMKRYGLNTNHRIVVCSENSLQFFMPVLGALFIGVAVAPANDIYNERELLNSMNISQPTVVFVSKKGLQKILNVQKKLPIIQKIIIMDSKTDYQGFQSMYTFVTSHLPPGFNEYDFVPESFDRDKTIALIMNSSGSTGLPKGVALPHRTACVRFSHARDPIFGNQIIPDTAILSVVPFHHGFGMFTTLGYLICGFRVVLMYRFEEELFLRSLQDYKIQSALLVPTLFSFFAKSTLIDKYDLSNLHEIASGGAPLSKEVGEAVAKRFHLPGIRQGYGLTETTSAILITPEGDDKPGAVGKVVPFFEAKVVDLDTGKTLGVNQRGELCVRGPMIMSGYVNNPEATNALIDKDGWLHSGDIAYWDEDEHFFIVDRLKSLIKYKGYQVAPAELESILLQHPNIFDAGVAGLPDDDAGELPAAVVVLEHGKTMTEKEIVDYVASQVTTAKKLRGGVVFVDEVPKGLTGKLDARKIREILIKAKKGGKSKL
Description: BLI; ForteBio BLItz; His-tagged luciferase aggregated on the sensor; 5 µM sHsp (preincubated 10 min at 44 °C) bound for 10 min, then buffer F or Hsp70 system (0.7 µM DnaK, 0.28 µM DnaJ, 0.21 µM GrpE, 5 mM ATP) for 1 hr; room temperature. The following applies: both partners purified.

Data set [3] concerns the molecule itself. In words: dynamic light scattering; 10 µM sHsp in buffer F (50 mM Tris pH 7.5, 150 mM KCl, 20 mM MgCl2, 2.5 mM DTT); oligomer size measured at 25 °C and 44 °C in repeated cycles.

With “IbpA from Escherichia coli (from UniProt P0C054) Q66H; G109D”, in data set [1] (parent: est. 2.7), the response was found to be 1.5 nm.
As for “IbpA from Erwinia amylovora (from UniProt A0ABX7MII2) H67Q; D110G”, the response in data set [1] (parent: est. 0.91) turned out to be 1.4 nm.

B1: IbpA_(E.coli) Q66H G109D (natural protein, E. coli, UniProt P0C054 1-137, looked up)
chain: MRNFDLSPLYRSAIGFDRLFNHLENNQSQSNGGYPPYNVELVDENHYRIAIAVAGFAESELEITAHDNLLVVKGAHADEQKERTYLYQGIAERNFERKFQLAENIHVRDANLVNGLLYIDLERVIPEAKKPRRIEIN
notes: IbpA, small heat shock protein of E. coli, with AncA1-like substitutions; source: purified
For B1, the binding result in data set [2] and in data set [3] was “binds” throughout.

B2: IbpA from Escherichia coli (natural protein, E. coli, UniProt P0C054 1-137, looked up)
chain: MRNFDLSPLYRSAIGFDRLFNHLENNQSQSNGGYPPYNVELVDENHYRIAIAVAGFAESELEITAQDNLLVVKGAHADEQKERTYLYQGIAERNFERKFQLAENIHVRGANLVNGLLYIDLERVIPEAKKPRRIEIN
notes: IbpA, small heat shock protein of E. coli; also called IbpA_(E. coli); IbpAEc; source: purified as described previously (Ratajczak et al., 2009)
Consider B2, for which, in data set [2], the binding result is given as “binds”.
